The target of assay [1] is DS-Cav1-foldon-I53-50 nanostructure (respiratory syncytial virus (RSV)). The assay can be described thus: SPR after heat stress of the antigen (70 °C, 1 h); 50 nM DS-Cav1.
In assay [2] the target is DS-Cav1-foldon-I53-50A (respiratory syncytial virus (RSV)). The assay is described as above.

With D25 monoclonal antibody, the binding signal retained after 1 hour at 70 °C turned out to be 80% in assay [1] and 50% in assay [2].

The values above are taken from patent publication US20200397886A1.
